From the supplement of paper PMC12636428

tested on: Saccharomyces cerevisiae; experiment: transcriptional activation domain activity (GFP:mCherry ratio, weighted mean of sorted bins, harmonized to initial dataset scale) (arbitrary fluorescence ratio units); higher = stronger transcriptional activation; conditions: beta-estradiol 1 µM; induction time 4 h
How it was run: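 Barcoded protein tiles fused to an estradiol-inducible synthetic transcription factor were integrated at the yeast URA3 locus, in diploids carrying a GFP reporter. Cultures were diluted 1:5 into SC with 1 uM beta-estradiol, held 4 hours at 30 °C, sorted into 8 bins by GFP:mCherry ratio, and barcodes sequenced. Tiles under 50 reads were discarded. Activation activity is the read-weighted mean of bin median fluorescence, averaged across barcodes, then linearly mapped onto the initial dataset scale.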

Going from “GSRGGRGGRGGSGGRGGRGGSSGGGGRESSGGRSERGGRRGGSGASGTKRLGK” to “MAPETKNKKRKSGVTASSPSTKKLKKAEAPVAEEAPAPVKSTKKSKAAAPKAE”, the “transcriptional activation domain activity” value rises from 15100 to 43300.

Compared with “AAGAAGAKASKAPKASKAAKAPKASGAAGAKKGGKKAGKGAASSGAAKAPAAT”, “MLTIYFPLLLFLCFHFFNRVKVWWVWVWGRVKLGWVYWFLYLCIWKGGWIRNR” is higher in “transcriptional activation domain activity” value: 42400 for the first, 48300 for the second.

Going from “MASALLDFPYLHLGIPSFLRVNLFLNIHVHFFFVHFCLSPSVRFIFFYFFLYL” to “MSLGELAVLWVKRARHLGQSLLRVVLVSYAVDLPANCVALLRTGIRVLMLNMI”, the “transcriptional activation domain activity” value falls from 50300 to 37300.

Compared with “TSAVLDLGDERDVADYDVISLAEDYVGRDNRKGQKRAMRLDESGPRMEIKVVK”, “KLYSLGHILHSFIFVFSFFHFLISFLHSGFLCPRLFMFSSSLLFYYFLVGFFF” is lower in “transcriptional activation domain activity” value: 45400 for the first, 27700 for the second.

Going from “FVNLPYYPHVHLSSFFFFCFSLSIFVLSFRFVHLIPFPSYLLCLSVRLFFGLL” to “RNGDKDSGHSRHKDRRHEHRSERRRYSDEGEEDRHRSHRSSHRSSRRRSRSRS”, the “transcriptional activation domain activity” value rises from 25600 to 31900.

First: TGGFGSTNTGGGGLFGGGNTSNTGGGFGSTAGGFGSTNTTSAFGGAAKPAFGA
Second: LTHLRQLLEVKRTRRSLFVFRKTLGRIIRPVITWTYIFFFTLSMWTKPIVPLI
The “transcriptional activation domain activity” value of the first is lower: 19300 for the first, 36900 for the second.

Compared with “FGSWGRGLCPLVFREAGWLELWGCVCVGGTLVWCLPYGILPMSYWRIWGLLRW”, “MIPSYLSHGRAAIIAIRLVLALYFFWHPLVLFLSSLKLITPCICLHLLFAFWI” is lower in “transcriptional activation domain activity” value: 74600 for the first, 62500 for the second.

Compared with “HTFVRICKLAGDLIDWVGMCVDCGKCSATQGRDCLDVIMRLSIMAVHGLRFVG”, “RTTSLGVWFLLIQSLWYCAFGVLYVWFFCQTFESFNTLLVLDYILRFILCLMF” is higher in “transcriptional activation domain activity” value: 51400 for the first, 86900 for the second.

Compared with “AGAKQLAYPQKLALIQYSDHISLNILVGKGWQELNAELVCLFVILARNIFVML”, “ELSHPSALFCYILFRLFPIFMYLFGHLVLMLVTQESWFILYFIVLILLVAADF” is higher in “transcriptional activation domain activity” value: 45600 for the first, 60500 for the second.

Going from “MWVINRAFLEFYFIFCIVFTVHLVCFCFFWLIFLFCLLHASFLLCDFPFFFYY” to “MITTLFSFLLVFFPFFLFRFFLLLLLLNLFLLLLSHFLSLYHQPISPIPPRHH”, the “transcriptional activation domain activity” value rises from 41100 to 74200.

Compared with “MLLLPFIPSYLTFFLIFLFVLFDFHFWFLFLFGLTFSCCCWTLSFCKTSLIWF”, “LAGGLGFFLWLLPTWWVLFACVGFLVWLFWSPVVLVASVGFVAWKLGYWWVLW” is lower in “transcriptional activation domain activity” value: 57700 for the first, 24100 for the second.

First: ILCLSFSIKVLLCFLLIFFPLNVEPPPPDFFFHFLCLWFFFVISFLRFHLLYF
Second: DSDTRRRGGEGGHRMRSSIACTRCRRSKIKCENQGVGSQCKACHGQGRECTYP
The “transcriptional activation domain activity” value of the first is higher: 59900 for the first, 31300 for the second.

Going from “LLSVCVGKNCTVPSPLNSFDRSFYPIGCTNLSNDIPGYSFLNDAMSEIHTFGD” to “AAAPAAANDGFHEVHHNRGGRGRGGHQGEGRGGYRGRGGPRGEFRGRGRGRGR”, the “transcriptional activation domain activity” value falls from 82000 to 42000.

Going from “PSHEYNKTLSALLILLESSAERCFKDLTLLRAAGVTLLGRLFLVFPVFFNPRH” to “LVHNTLCMLDLIPLLSVRLLLMSLSICFGWYTIFVFAAGVIETVHLTIGRTFT”, the “transcriptional activation domain activity” value falls from 57600 to 33900.

Compared with “PFIIVTGLVVFVYYSYLDRIFLVLLRKLHRKALAIAYFVPLNIFIFLFIISYC”, “KEEAPAEEQEKEEKKEKVPLSDARKGRARGPQRRAPAAAKAAAAAAAAPAPAV” is lower in “transcriptional activation domain activity” value: 63700 for the first, 34400 for the second.

First: MPLPPLSLSLLVLHSRHSQHSFSLHTYTLTFLFYFPYLLIDLDYLAFFFIFFP
Second: ASSVRIIAIKYFLTIHRWLPIVFKRGFFSSLLNPVAQRQTELGLLILCMKLCC
The “transcriptional activation domain activity” value of the first is lower: 41400 for the first, 48800 for the second.

Compared with “SKRAQDPLRIWDAMIDVHVHLPAGAQKKDGPSAGVAMVIVCAIVSLLTGKCVP”, “SLPFHCTLLLVVINLIAVVAILWTRFASKLLGSSVCAFLYIFVGTFTILIHVR” is lower in “transcriptional activation domain activity” value: 46600 for the first, 20500 for the second.

First: LRPGRQAQRRHVLALQARPALLLPPDLDARAVQPAHRQPQGPEEGGRAGPARP
Second: RPSGASTPVQPTPEPDNKKRRRGKGGDDAETDGKPVKKAKRGRKPKVVQEPKV
The “transcriptional activation domain activity” value of the first is lower: 15100 for the first, 33200 for the second.

Going from “WLRVRKFTVTLATFVEPGTESILCGLYGAYALTTLPFFHNIGISSTWTSFFLI” to “RQRAGASGGEEARGRREGRREGGEGEGEGKTEEGTNERDGREGERREGRRRGG”, the “transcriptional activation domain activity” value rises from 36600 to 37700.

First: SQKNGTSAANALVYGGFSHTVTQHTIKDVSIDGTWLEEEIDGFKSDTLGFHVD
Second: IHISPFLSFLLFNTFLFFFDILLEYDQSGKSSCSVLWGIGWGCWWILFIGSLQ
The “transcriptional activation domain activity” value of the first is higher: 72800 for the first, 38800 for the second.

Compared with “KARKRTRERKKEKEGRARTKGEGDRYEGRKFEISGTVEVKRERCEGTRRTKPK”, “VRVLGHDTLYFLTLYLLKAELFFVFFFFLFFRYMLEKRTVIKFTFFFYPCLFE” is higher in “transcriptional activation domain activity” value: 9070 for the first, 54700 for the second.

Compared with “MVILMMGGEYGHFLGFSFYYFLHVWDGEEYYYCCGFYLSQSLLSILLCILLYL”, “LNCLDLSGIDCCLFFMALRLEVLYSWFLFLAWQLLCTHPALLAFAFGFLGFLI” is lower in “transcriptional activation domain activity” value: 55400 for the first, 51600 for the second.

Going from “EKKRLLREKNKKRKRGEEVSDDEEEQKEEAAKKAKSEKEDSKHGIWVGNLHFS” to “LSELSSALDPTQAQYAYARIEYANDTESKRVKFILVIWIGEGTKVMRKARVSI”, the “transcriptional activation domain activity” value falls from 50100 to 37600.

Going from “RKDKSRVEDSDSADSDAGHVNGNKAGEGEEGAAKKKRKRRHKKRVPDGEGASV” to “SLNIDSMLDDYVSSDLLLNDDDDDTNLSRRRFSDVITNQFPSMTNSRNSISHS”, the “transcriptional activation domain activity” value rises from 29700 to 52600.

First: NKHVFLILIRSTLCNNWLIATIWVVEIRFCLDLLQTAFPLIFFRFLTWLFFFQ
Second: NCLLHIMRFLPFLELKQFIIAYRRFDIYACAESAIHLQYLDFFNFWMDPSFLL
The “transcriptional activation domain activity” value of the first is higher: 79900 for the first, 49700 for the second.

First: LEEAEDGGGALADGEIEVRVAATGVTVDDARAAAGLRAGYTVGTECSGTVARV
Second: MLHSLYVVAISKSGILSSFVNPTTTTVHYTPFEISMIGYFNLVLIWLKLLILW
The “transcriptional activation domain activity” value of the first is lower: 11500 for the first, 61300 for the second.

Compared with “FEHKELKLCPYFNFTFCVYFRLSNPFAKQYHITPTCFCGQNVTINRTYREGKN”, “RGDGMEERKGEKRGRKGGERGGRGEGGHRGRKGDTEGGRGTGEKRGGKGGKRG” is lower in “transcriptional activation domain activity” value: 62800 for the first, 33500 for the second.

Going from “SQEESIDNENQKVKEEEIEISVNNIKTEVEKEELKKDNKKGKKVVNKKEIKEE” to “FFNILILQWRRIRCCKVVSTSLCLENTLGVAQLFVQFVLFTLIFILYMIYFPP”, the “transcriptional activation domain activity” value rises from 39900 to 48300.

First: PNIILPLNPCRSGEFCELYPSAANLWAMFLHLILFCMQLPFILSIPFWLLFPV
Second: MFCLRSWIPLLFIPANASPGFIFLFFVCTYFLNRPCVYCSILLLILFVTSCYW
The “transcriptional activation domain activity” value of the first is higher: 52900 for the first, 41000 for the second.

Compared with “RLHCHVVCPLSHSLLTQVYLFLFFFLSNLLITSLSLPVHFFPFILCLCCIAHF”, “KKLTRGKGKKSKGKKARSNAKRSKGKGKVTKEDTSDEEDEEEGEEERGEEEEE” is lower in “transcriptional activation domain activity” value: 58000 for the first, 12500 for the second.

Going from “VNGGGESDEDVKSKKDSKRKGKAIKGEDEEEEEEKPKANSKRGRKKVEENGAV” to “RLLNKTRQCHDDGIAVLQNSIETISTTLVLWTHREVIGPLQLNLNWVAMSFAC”, the “transcriptional activation domain activity” value rises from 44700 to 48200.

Going from “LILLRLLWPVTLYFFVSLMYSLLSLAFGVPFSRNFGHAGFLIYWMMSWCSMSA” to “FYLSPVMPLFPPLLKLLREYLSDPLYKDFVSAIYLWVRSVELHHMSTLCIALL”, the “transcriptional activation domain activity” value rises from 62400 to 68900.

Compared with “MVNNYWSYQYSLMPFLFFFFVSQFKSCSYFFFSLLFFSWLFRFLVSYFLSWKT”, “MLDVILYLPCLLITYLCWAVWFLFIVFLCFLLCWFCFVIDGLFPFFFITFVFL” is lower in “transcriptional activation domain activity” value: 71500 for the first, 56100 for the second.

Going from “RPSLGCILFILIRYVSIIVMVVSNYGVLSTSFTEKVCERYFMIAPVFKVIQTM” to “SPSRRRDRDYDYSRYRRRDDSRSRSPRRRADPKDQQEKEKEKVKVKPSRAAAT”, the “transcriptional activation domain activity” value falls from 50600 to 16200.

Going from “ADCAVIGVNSEEEATELPRAYVVHAKGIPPSEQAAFGVSVQEWVKSRVARHKQ” to “LFFSSFLYFSLSLGAPGNYFFDVTFFFIPYPPLCIASYSLGFFFFFSFFFFFS”, the “transcriptional activation domain activity” value falls from 80600 to 70900.

Going from “MIFIYMIFIYVIFLFLYFYIFFYFLFFIFIIFICCYFIFLYYLFSYFPFFLFY” to “MGLYIFIFSFSFFLFFFFFFFFFFFVLGLVFVSMRTERLLSSQYFFFFWFFSG”, the “transcriptional activation domain activity” value falls from 43500 to 27800.

Going from “MARAKPTRIVESDEDDSDSGQLSSAPAKRKAGSEDANPAAKRARTASAKQKQL” to “MFGFSLFFLFCFSVIVGFILFTLFFDYSPLSISLSCSVYCIMLCLSLFFLVFF”, the “transcriptional activation domain activity” value falls from 63000 to 34200.

Going from “SISFIGHRMMFWFFACVGLACLFMAGALAVMCLHYLLMIFLFYLRCYPPYLGS” to “QEKEGGAKEAQPDADADAEAEGKAARQKARKAVVSAASDDEGDDEEEEEEEEG”, the “transcriptional activation domain activity” value falls from 31900 to 10000.

Compared with “LLVLFACQIICETIVIGITSNAFSVVVLPPYFTGCLPGNIKPFAWVYWLPMLL”, “MPPHSEIDDIFAAKHSEPAPPPPPQKKKSKKRKRDAAAATVAPAAAPPPAAPA” is lower in “transcriptional activation domain activity” value: 59400 for the first, 46500 for the second.

Going from “VIRGLEELVYLDIRLPFQVEFLNMNPLLLGPACILRSMTLVILSSDGCFPTSR” to “WTCVRRPGGLGGFFFGTWTGWQIWVGLLVFWVGGCTFGLLLMNRFLLLTGVYK”, the “transcriptional activation domain activity” value falls from 54000 to 42000.

Going from “QSLNFDLQTNSYYSNARGSDPSSYAIEGEYKTLATDDLGNILNLNYGETNEVI” to “VRSLTLEIYFNWLQIIFDSKLQDEFSKLLNYNLITKVDLIINLLESIALRFSD”, the “transcriptional activation domain activity” value falls from 80000 to 51000.

In the case of “LENTNNNGSNVNAATNDTSASTNNINNNNAICQSASLLNDPLETLDFTKCIFA”, the “transcriptional activation domain activity” value is reported as 46900.
